We go through one molecule from article PMC9532426, “Autophagy induction promoted by m6A reader YTHDF3 through translation upregulation of FOXO3 mRNA”.

For this series, the target named is T1, YTHDF3 (mouse, UniProt Q8BYK6 1-585).
T1 sequence: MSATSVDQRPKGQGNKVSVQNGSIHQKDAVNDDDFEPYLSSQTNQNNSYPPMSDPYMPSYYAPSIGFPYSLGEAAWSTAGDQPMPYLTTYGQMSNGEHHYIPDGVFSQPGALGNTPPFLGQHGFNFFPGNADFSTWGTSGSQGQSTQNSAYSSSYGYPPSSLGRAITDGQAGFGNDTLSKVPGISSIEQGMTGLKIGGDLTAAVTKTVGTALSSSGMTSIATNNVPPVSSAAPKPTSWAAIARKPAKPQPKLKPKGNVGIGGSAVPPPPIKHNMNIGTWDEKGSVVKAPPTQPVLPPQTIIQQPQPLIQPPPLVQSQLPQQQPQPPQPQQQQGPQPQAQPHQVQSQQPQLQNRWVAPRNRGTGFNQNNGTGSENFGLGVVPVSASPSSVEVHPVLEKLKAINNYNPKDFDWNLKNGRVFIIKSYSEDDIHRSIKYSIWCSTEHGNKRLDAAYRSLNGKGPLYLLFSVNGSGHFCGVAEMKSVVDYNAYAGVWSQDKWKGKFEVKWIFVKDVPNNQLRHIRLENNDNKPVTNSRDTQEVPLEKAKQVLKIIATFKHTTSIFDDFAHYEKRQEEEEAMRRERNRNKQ
Briefly: EMSA; LightShift Chemiluminescent RNA EMSA kit; 20 pmol RNA, 6 ug YTHDF3, room temperature 30 min; 6% TBE gel, 0.5x TBE; buffer salt and pH not stated. The following applies: protein: commercial; label: 5' biotin. A general note: In EMSA bound probe runs differently from free probe, usually more slowly.

B1: Foxo3-CDS-m6A-biotin-RNAProbe 1 (ssRNA)
RNA: GUGACUUGGACCUGGAC
modifications: m6A at A4, A10, A16 (from text sites 2151, 2158, 2163 nt; the modified probe line is not in the material)
For B1, the binding result is “binds”.
